The test system of series [1] is TSP1-3 substrate, (HiLyteFluor-488)-KVTEENKELANELRR-K(QXL520)-NH2.
The subject of series [2] is TSP1-5 substrate, (HiLyteFluor-488)-SSMVLELRGLRT-K(QXL520)-NH2.
Series [3] has as its system TSP1-2 substrate, (HiLyteFluor-488)-SSMVLELRGLRTIVT-K(QXL520)-NH2.
The subject of series [4] is TSP1-1 substrate, (HiLyteFluor-488)-DELSSMVLELRGLRT-K(QXL520)-NH2.
The subject of series [5] is COMP1 candidate peptide, (Donor) GMQQSVRTGLPS (K-Quencher).
Series [6] concerns COMP2 candidate peptide, (Donor) SPGFRC(Acm)EAC(Acm)PPGYS (K-Quencher).
The test system of series [7] is TSP1-4 substrate, (HiLyteFluor-488)-EENKELANELRRPPL-K(QXL520)-NH2.
For series [8], the system named is (HiLyteFluor-488)-DELSSMVLELRGLRT-K(QXL520)-E-NH2.

Chain of rPro-hCD-FM2 (Rat 1-217/Human 237-537 FM2 (Q216K))-TEV-2Strep-6His (chain, as listed by the source Q216K): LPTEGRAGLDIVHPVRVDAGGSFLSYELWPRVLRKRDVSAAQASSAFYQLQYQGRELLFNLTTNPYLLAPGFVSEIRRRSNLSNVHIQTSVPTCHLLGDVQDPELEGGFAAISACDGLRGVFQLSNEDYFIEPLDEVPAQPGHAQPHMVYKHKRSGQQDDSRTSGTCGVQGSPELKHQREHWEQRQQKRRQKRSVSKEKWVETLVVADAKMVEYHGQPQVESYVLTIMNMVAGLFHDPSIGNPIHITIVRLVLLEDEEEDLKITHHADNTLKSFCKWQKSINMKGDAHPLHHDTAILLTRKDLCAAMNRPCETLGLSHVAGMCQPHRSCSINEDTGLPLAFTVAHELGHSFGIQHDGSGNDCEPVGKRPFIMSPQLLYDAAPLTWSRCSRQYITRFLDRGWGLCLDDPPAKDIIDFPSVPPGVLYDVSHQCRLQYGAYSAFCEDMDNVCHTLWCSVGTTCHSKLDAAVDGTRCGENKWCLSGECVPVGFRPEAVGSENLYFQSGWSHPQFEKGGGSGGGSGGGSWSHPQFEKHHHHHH
Chain of rPro-hCD (Rat 1-217/Human 237-537)-TEV-2Strep-6His (chain, as listed by the source): as the sequence (chain, as listed by the source Q216K) above, with K192Q counted along it

In general, kcat refers to the number of substrate molecules converted per active site and unit of time at saturation. As for “rPro-hCD (Rat 1-217/Human 237-537)-TEV-2Strep-6His”, the “FRET peptide cleavage (Relative Fluorescence Units over time)” value is reported as “No significant activity was detected at the defined ADAMTS1 cleavage site E311⬇L312 from TSP1 S3” in series [1]; “Activity was observed for the S5 substrate with ADAMTS-7 human catalytic domain constructs compared to buffer alone, however the removal of the amino DEL sequence greatly reduced the signal for activity compared to the 51 substrate” in series [2]; “also cleaved the overlapping TSP1 S2 substrate” in series [3]; “demonstrated the greatest specificity for the TSP1 S1” in series [4]; “No activity was observed with COMP candidate peptides COMP1” in series [5]; “No activity was observed with COMP candidate peptides COMP1 ... or COMP2” in series [6]. In addition, the “FRET peptide cleavage (Relative Fluorescence Units over time)” value in series [7] is on record as “No significant activity was detected at the defined ADAMTS1 cleavage site E311⬇L312 from TSP1 S3 ... or TSP1 S4”. For the same substance, the kcat came to 0.0012 min⁻¹ in series [1]; 0.002 min⁻¹ in series [2]; 0.0032 min⁻¹ in series [3]; 0.021 min⁻¹ in series [4]; 0.00073 min⁻¹ in series [5]; 0.00038 min⁻¹ in series [6]. Further, the kcat in series [7] came to 0.002 min⁻¹. For the same substance, the “FRET peptide cleavage (increase of fluorescence intensity)” value in series [8] is “It was surprisingly found that the same substrate could be used for the paralogs ADAMTS-7 and ADAMTS-12”.
As for “rPro-hCD-FM2 (Rat 1-217/Human 237-537 FM2 (Q216K))-TEV-2Strep-6His”, the “FRET peptide cleavage (Relative Fluorescence Units over time)” value in series [1] is recorded as “No significant activity was detected at the defined ADAMTS1 cleavage site E311⬇L312 from TSP1 S3”; in series [2], “Activity was observed for the S5 substrate with ADAMTS-7 human catalytic domain constructs compared to buffer alone, however the removal of the amino DEL sequence greatly reduced the signal for activity compared to the 51 substrate”; in series [3], “also cleaved the overlapping TSP1 S2 substrate”; in series [4], “demonstrated the greatest specificity for the TSP1 S1”; in series [5], “No activity was observed with COMP candidate peptides COMP1”; in series [6], “No activity was observed with COMP candidate peptides COMP1 ... or COMP2”. Also, the “FRET peptide cleavage (Relative Fluorescence Units over time)” value in series [7] is on record as “No significant activity was detected at the defined ADAMTS1 cleavage site E311⬇L312 from TSP1 S3 ... or TSP1 S4”. Moreover, the kcat stood at 0.0012 min⁻¹ in series [1]; 0.0021 min⁻¹ in series [2]; 0.0029 min⁻¹ in series [3]; 0.024 min⁻¹ in series [4]; 0.00076 min⁻¹ in series [5]; 0.00039 min⁻¹ in series [6]. Also, the kcat in series [7] worked out at 0.0021 min⁻¹. Further, the “FRET peptide cleavage (increase of fluorescence intensity)” value in series [8] is “It was surprisingly found that the same substrate could be used for the paralogs ADAMTS-7 and ADAMTS-12”.
